Entries after “also recorded” stand apart in the source; their conditions may differ. Read-outs that look alike come from different tables or passages of the source.
Key:
MC2R [1] = molecular target: T1, MC2R (Homo sapiens, UniProt Q01718); assay: Activation of hMC2R by ACTH analogs: cAMP production in CHO cells co-transfected with hMC2R and mouse MRAP1; format: cell-based; design: host or cells: CHO cells, transient transfection, pcDNA3.1; conditions: for MC2R activation relative to full-length ACTH / MC2R activation relative to full-length ACTH: fold drop in activity: analog alone, transfected CHO cells, cAMP after 15 min
Procedure: (§1) FIG. 1. Inhibition of ACTH(1-24) by ACTH(15-24) peptide. For all experiments, Chinese Hamster Ovary (CHO) cells were transiently transfected with a human melanocortin receptor gene construct (MC2R for FIGS. 1-3) and a mouse MRAP1 gene, as described in the Examples section. Two days later, individual wells of transfected CHO cells (10^5 cells per well) were incubated with ACTH(1-24) at concentrations ranging from 10^−6 to 10^−12 M. For these experiments, each concentration of ACTH(1-24) was co-incubated with either no KKRRPVKVYP (SEQ ID NO:1) (filled circle), 10^−6 M KKRRPVKVYP (SEQ ID NO:1) (filled diamond), 10^−7 M KKRRPVKVYP (SEQ ID NO:1) (half-filled square), 10^−8 KKRRPVKVYP (SEQ ID NO:1) (circle in square), or 10^−9 M KKRRPVKVYP (SEQ ID NO:1) (open square). After a 15 minute incubation, the amount of cAMP produced in each well of CHO cells was measured. Each data point is a minimum of n=3. […] The ACTH analog ACTH(11-24) [KPVGKKRRPVKVYP; SEQ ID NO:7] at a concentration of 10^−6 M produced a 50% inhibition of ACTH(1-24) stimulation, but had no effect on ACTH(1-24) stimulation when tested at a concentration of 10^−7 M.
(§2) To test this hypothesis, a human MC2R gene construct was transiently co-transfected with a mouse MCR2R accessory protein 1 (MRAP1) gene into CHO cells and subsequently, cAMP production was measured.
(§3) Human hMC2R, Genbank Accession No. AY225229.1, was synthesized by GenScript with a V-5 epitope tag and inserted into a pcDNA3.1 vector. Mouse (Mus musculus) mMRAP1, Genbank Accession No. NM_029844, was also synthesized by GenScript with a FLAG epitope tag and inserted into pcDNA3.1 vectors.
(§4) The experiments were all done in transiently transfected CHO cells. The CHO cells were grown at 37° C. in a humidified 5% CO2 incubator in Kaighn's Modification of Ham's F-12 (2 mM glutamine, 1500 mg/L bicarbonate) with 10% fetal bovine serum, 5 mL pen/strep, and 1 mL normocin.
(§5) In order to functionally express hMC2R in heterologous cells, like CHO cells, the hMC2R construct must be co-transfected with a mammalian MRAP (melanocortin receptor accessory protein; Hinkle, P. M. and Sebag, J. A. (2009) Structure and function of the melanocortin 2 receptor accessory protein. Mol. Cell. Endocrinol. 300:25-31). CHO cells were transfected with 2 μg of hMC2R and mMRAP using a Cell Line Nucleofector Kit (Amaxa, Inc.) with solution T and program U-023. The cells were then plated on a white, 96-well plate a density of 1×10^5 cells per well. 48 hours after transfection, cells were stimulated with the appropriate ligands in serum-free CHO media for 15 minutes at 37° C. at concentrations ranging from 10^−5 M to 10^−10 M. After a 15 minute incubation, a direct cAMP EIA kit (Assay Designs, Ann Arbor, Mich.) was used to measure cAMP in the CHO cells.
(§6) All experimental treatments were performed in no less than triplicate, and then corrected for control values, which were obtained by using transfected cells that were left unstimulated. In each of the assays, maximal activation levels were between three to 10 times the control level. Corrected values were normalized to 100 nM ACTH activation. Average values and standard errors of the mean were graphed using KaleidaGraph software, and the […] value for each ligand was determined.
Target sequence in this assay (Q01718 whole entry): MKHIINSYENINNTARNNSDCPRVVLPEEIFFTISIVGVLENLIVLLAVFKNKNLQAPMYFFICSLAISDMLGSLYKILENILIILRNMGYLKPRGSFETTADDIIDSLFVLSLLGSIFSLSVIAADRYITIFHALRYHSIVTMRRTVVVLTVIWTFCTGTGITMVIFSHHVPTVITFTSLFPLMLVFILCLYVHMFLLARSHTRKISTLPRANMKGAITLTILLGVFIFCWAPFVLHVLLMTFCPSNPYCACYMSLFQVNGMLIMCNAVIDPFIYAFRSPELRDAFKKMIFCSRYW
Target sequence in this assay (Q9D159 whole entry partner): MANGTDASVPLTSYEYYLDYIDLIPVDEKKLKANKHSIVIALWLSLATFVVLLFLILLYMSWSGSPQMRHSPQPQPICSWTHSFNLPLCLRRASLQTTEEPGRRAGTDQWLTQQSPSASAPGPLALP

MC2R [2] = molecular target: T1, MC2R; assay: Inhibition of ACTH(1-24)-dependent hMC2R activation by co-incubated analog: cAMP in transfected CHO cells; format: cell-based; design: host or cells: CHO cells, transient transfection, pcDNA3.1
Procedure: as §1
Target sequence in this assay (Q01718 whole entry): as the sequence (Q01718 whole entry) above
Target sequence in this assay (Q9D159 whole entry partner): as the sequence (Q9D159 whole entry partner) above
FIG. 2. Dose response curve for ACTH analog AT814. AT814 is a previously-described ACTH inhibitor (WO 2006/052468). For this experiment, individual wells of transfected CHO cells (as described for FIG. 1) were incubated with ACTH(1-24) at concentrations ranging from 10^−6 to 10^−12 M alone (open circle) or ACTH(1-24) and AT814 at a concentration of 10^−6 M (open square).
FIG. 3. Dose response curve for ACTH analog AT814. […] Open circles: ACTH(1-24) alone; open squares: ACTH(1-24)+AT814 (10^−7 M).
as §2, §3, §4, §5, §6

MC2R [3] = molecular target: T1, MC2R; assay: Activation of hMC2R by ACTH analogs: cAMP production in CHO cells co-transfected with hMC2R and mouse MRAP1; format: cell-based; design: host or cells: CHO cells, transient transfection, pcDNA3.1; conditions: 10^-6 to 10^-12 M
Target sequence in this assay (Q01718 whole entry): as the sequence (Q01718 whole entry) above
Target sequence in this assay (Q9D159 whole entry partner): as the sequence (Q9D159 whole entry partner) above

human MC4R = molecular target: T2, human MC4R (Homo sapiens, UniProt P32245); assay: Activation of human MC4R in hMC4R-transfected CHO cells (cAMP production); format: cell-based; conditions: analog at 10^-6 to 10^-12 M
T2 construct: expressed in transfected cells; host or cells: CHO cells, pcDNA3.1
T2 sequence (P32245 whole entry): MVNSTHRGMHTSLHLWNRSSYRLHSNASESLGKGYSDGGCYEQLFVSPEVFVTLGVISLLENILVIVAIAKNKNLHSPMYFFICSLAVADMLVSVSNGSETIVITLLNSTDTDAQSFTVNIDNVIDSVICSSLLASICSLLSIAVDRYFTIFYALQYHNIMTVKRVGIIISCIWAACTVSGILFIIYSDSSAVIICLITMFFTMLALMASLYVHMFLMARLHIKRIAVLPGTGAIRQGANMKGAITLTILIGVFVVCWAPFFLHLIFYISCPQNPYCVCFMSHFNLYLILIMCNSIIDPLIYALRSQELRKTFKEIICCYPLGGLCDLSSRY
Procedure: FIG. 4. Activation of human MC4R by ACTH analog AT814. Because AT814 has the HFRW (SEQ ID NO:8) motif, the hypothesis that this analog could activate the human MC4 receptor was tested. CHO cells were transfected with a human MC4R cDNA construct in a pcDNA3.1 vector.

MC2R [4] = molecular target: T1, MC2R; conditions: from previous studies / literature, cited from earlier work
Target sequence in this assay (Q01718 whole entry, species assumed): as the sequence (Q01718 whole entry) above
Target sequence in this assay (Q8TCY5 whole entry partner, species assumed): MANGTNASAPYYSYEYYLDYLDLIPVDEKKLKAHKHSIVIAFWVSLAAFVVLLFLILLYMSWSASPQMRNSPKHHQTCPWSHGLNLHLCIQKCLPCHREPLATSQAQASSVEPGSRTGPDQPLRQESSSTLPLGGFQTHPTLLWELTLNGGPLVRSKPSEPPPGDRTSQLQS

[5] = analog at 10^-6 M co-incubated with ACTH(1-24) 10^-6 to 10^-12 M
[6] = analog at 10^-7 M co-incubated with ACTH(1-24) 10^-6 to 10^-12 M
[7] = analog at 10^-8 M co-incubated with ACTH(1-24)

SYSMEHFRWGKPVGAAAAAVKVYP (synthetic adrenocorticotropin hormone (ACTH) analog)
MC2R activation relative to full-length ACTH (MC2R [1]): No activity

SYSMEHFRWAAAAAKKRRPVKVYP (synthetic adrenocorticotropin hormone (ACTH) analog)
MC2R activation relative to full-length ACTH: fold drop in activity (MC2R [1]): 400 fold drop

SYSMEHFRWGKPVGKKAAAVKVYP (synthetic adrenocorticotropin hormone (ACTH) analog)
MC2R activation relative to full-length ACTH: fold drop in activity (MC2R [1]): 100 fold drop

SYSMEHFRWGKPVGAARRPVKVYP (synthetic adrenocorticotropin hormone (ACTH) analog)
MC2R activation relative to full-length ACTH: fold drop in activity (MC2R [1]): 100 fold drop

KKRRPVKVYP (synthetic adrenocorticotropin hormone analog ACTH(15-24) peptide, human ACTH residues 15-24, ACTH antagonist polypeptide) [ACTH antagonist polypeptide, residues 15-24 of human ACTH]
inhibition of ACTH(1-24) activation of hMC2R (MC2R [2]; [5]): complete blockage | inhibition of ACTH(1-24) activation of hMC2R (MC2R [2]; analog at 10^-6 M co-incubated with ACTH(1-24) 10^-6 to 10^-12 M, listed as ACTH(15-24)): completely blocked | inhibition of ACTH(1-24) activation of hMC2R (MC2R [2]; [6]): complete blockage | inhibition of ACTH(1-24) activation of hMC2R (MC2R [2]; analog at 10^-7 M co-incubated with ACTH(1-24) 10^-6 to 10^-12 M, listed as ACTH(15-24)): completely blocked | drop in hMC2R activation by ACTH(1-24) (MC2R [2]; [7]): 34±5% | inhibition of ACTH(1-24) activation of hMC2R (MC2R [2]; [7]): partial blockage | inhibition of ACTH(1-24) activation of hMC2R (MC2R [2]; analog at 10^-9 M co-incubated with ACTH(1-24)): no effect | activation of hMC2R (cAMP production) by analog incubated alone (MC2R [3]): did not activate | MC2R activation relative to full-length ACTH (MC2R [1]): No activity

RRPVKVYP (synthetic adrenocorticotropin hormone analog ACTH(17-24) peptide, human ACTH residues 17-24) [ACTH analog ACTH(17-24)]
inhibition of ACTH(1-24) activation of hMC2R (MC2R [2]; [5]): did not block | inhibition of ACTH(1-24) activation of hMC2R (MC2R [2]; analog at 10^-6 M co-incubated with ACTH(1-24) 10^-6 to 10^-12 M, listed as ACTH(17-24)): no inhibitory effect | MC2R activation relative to full-length ACTH (MC2R [1]): No activity

SYSMEHFRWGKPVGKRAAWVKVYP (synthetic adrenocorticotropin hormone (ACTH) analog AT814 with modified KKRRP motif) [reference compound]
inhibition of ACTH(1-24) activation of hMC2R (MC2R [2]; [5]): competitive inhibitor; also recorded: completely inhibited | inhibition of ACTH(1-24) activation of hMC2R (MC2R [2]; [6]): ineffective; also recorded: no inhibitory effect | activation of human MC4R (cAMP production) (human MC4R): can activate; also recorded: stimulated the production of cAMP in a dose dependent manner

SYSMEAAAAGKPVGKKRRPVKVYP (synthetic adrenocorticotropin hormone (ACTH) analog)
MC2R activation relative to full-length ACTH (MC2R [1]): No activity

SYSMEHFAWGKPVGKKRRPVKVYP (synthetic adrenocorticotropin hormone (ACTH) analog)
MC2R activation relative to full-length ACTH (MC2R [1]): No activity

SYSMEHFRWGKPVGKKRRPVKVYP [reference compound]
activation of MC2R (previous studies) (MC2R [4]; listed as ACTH(1-24)): as potent an activator of MC2R as ACTH(1-39); also recorded: as fully as full-length human ACTH | activation of hMC2R (cAMP production) by analog incubated alone (MC2R [1]; 10^-6 to 10^-12 M, listed as ACTH(1-24)): robust standard curve; also recorded: produced cAMP in a dose dependent manner | MC2R activation relative to full-length ACTH (MC2R [1]): Full activity

NAc-SYSMEHFRWGKPV-NH2 [α-MSH]
activation of MC2R (previous studies) (MC2R [4]): cannot activate

KPVGKKRRPVKVYP (synthetic adrenocorticotropin hormone analog ACTH(11-24) peptide, human ACTH residues 11-24) [ACTH analog ACTH(11-24), reference compound]
inhibition of ACTH(1-24) stimulation (MC2R [2]; analog at 10^-6 M co-incubated with ACTH(1-24)): 50% | inhibition of ACTH(1-24) activation of hMC2R (MC2R [2]; [6]): no effect

KKRRPAAAA (synthetic adrenocorticotropin hormone (ACTH) analog)
inhibition of ACTH(1-24) activation of hMC2R (MC2R [2]; [5]): did not block

SYSMEHARWGKPVGKKRRPVKVYP (synthetic adrenocorticotropin hormone (ACTH) analog)
MC2R activation relative to full-length ACTH (MC2R [1]): No activity

— patent US8524664B2, “Methods of treating overproduction of cortisol using ACTH antagonist peptides” (Colorado Seminary, Which owns and Operates The Univeristy …, priority 2011, dated 2013)
